Paper PMC2133148 (The Journal of Cell Biology, 1999)
No end group written: not given here.

What was measured:
Test in all cases: two-hybrid
[1] = molecular target: PS2-loop C (LexA fusion bait) (human, UniProt P49810 270-300)
[2] = molecular target: PS2-loop B (LexA fusion bait) (human, UniProt P49810 270-319)
[3] = molecular target: PS1-loop C T291A (LexA fusion bait) (human, UniProt P49768 264-294, T291A)
[4] = molecular target: PS1-loop C T281P (LexA fusion bait) (human, UniProt P49768 264-294, T281P)
[5] = molecular target: T1, PS2-loop D (LexA fusion bait) (human, UniProt P49810 301-319, also: LexA fusion bait)
T1 chain (looked up): TVGMAKLDPSSQGALQLPY

[6] = molecular target: PS1-loop C (T281P, T291A) (LexA fusion bait) (human, UniProt P49768 264-294, T281P | T291A)
[7] = molecular target: PS1-loop C (T281P, L282I) (LexA fusion bait) (human, UniProt P49768 264-294, T281P | L282I)
[8] = molecular target: PS1-loop C (LexA fusion bait) (human, UniProt P49768 264-294)

B1: calmyrin (clone 7, full-length cDNA in pJG4-5) (natural protein, human, UniProt Q99828 1-191, looked up)
chain: MGGSGSRLSKELLAEYQDLTFLTKQEILLAHRRFCELLPQEQRSVESSLRAQVPFEQILSLPELKANPFKERICRVFSTSPAKDSLSFEDFLDLLSVFSDTATPDIKSHYAFRIFDFDDDGTLNREDLSRLVNCLTGEGEDTRLSASEMKQLIDNILEESDIDRDGTINLSEFQHVISRSPDFASSFKIVL
**Q.** For B1, which “fold increase in β-galactosidase activity over the lamin B control” value (from here on “fold increase”) [1] is on record?
**A.** Its value is 74 fold.

**Q.** What about the “fold increase” value [2] of the same binder?
**A.** The value was 8.5 fold.

**Q.** What about the “interaction relative to PS2-loop C” value [3] of the same binder?
**A.** Its value is ~0.33 fold of the PS2 level.

**Q.** What about the “interaction relative to PS2-loop C” value [4] of the same binder?
**A.** Its value is ~0.5 fold of the PS2 level.

**Q.** And the “fold increase” value [5]?
**A.** Its value is 2.2 fold.

**Q.** What about the “interaction relative to PS2-loop C” value [6] of the same binder?
**A.** The value was ~2 fold of the wild-type PS2-loop bait.

**Q.** And the “interaction relative to PS1-loop C T281P” value [7]?
**A.** The value was 1.7 fold of T281P alone.

**Q.** What about the “fold increase” value [8] of the same binder?
**A.** The value was 5.8 fold.
